{"source": "the RNAGym collection of RNA variant scans (doi:10.1073/pnas.2313332121)", "parents": {"B1": {"name": "TPR t1 (parent)", "chain": "GACCAAUCUGCCCUCAGAGCUCGAGAACAUCUUCGGAUGCAGAGGAGGCAGGCUUCGGUGGCGCGAUAGCGCCAACGUCCUCAACCUCCAAUGCAUCCCACCACAUGAUGAUGCCUGAAGAGCCUUGGUUUUUUG"}}}
{"variants_of": "B1", "assay": "polymerase ribozyme fitness, log enrichment relative to wild type (log ratio); higher = more active; in vitro selection for triplet polymerase activity", "how_it_was_run": "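A single round of triplicate in vitro selection, including frozen incubation at −7 °C, was applied to PCR-built, transcribed mutant libraries of each subunit of a heterodimeric triplet polymerase ribozyme. Illumina sequencing of input and output libraries retained genotypes with ≥10 input reads and ≥1 read per output. Fitness is the base-2 logarithm of genotype enrichment divided by wild-type enrichment, from inverse-variance-weighted replicate averages.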"}
{"variant": "GACCAAUCUGCCCUCAGAGCUCGAGAACAUCUUCGGAUGCAGAGGAGGCAGGCUUUGGUGGCGCGAUAGCGCCCUCGUCCUCAACCUCCAAUGCAUCCCACCACAUGAUGAUGCCUGAAGAGCUUUGGUUUUUUG", "polymerase ribozyme fitness (log ratio)": 0.971}
{"variant": "GACCAAUCUGCCCUCAGAGCUCGAGAACAUCUUCGGAUGCAGAGGAGGCAGGCUUGGGUGGCGCGAUAGCGCCAACGUCCUCAACCUCCAAUGCAGCCCACCACAUGAUGAUGCCUGAAUAGCCUUGGUUUUUUG", "polymerase ribozyme fitness (log ratio)": -1.41}
{"variant": "GACCAAUCUGCCCUCAGAGCUCGAGAACAUCUUCGGAUGCAGAGGAGGCAGGCUUUGGUGGCGCGAUAGCGACAACGUCCUCAACCUCAAAUGCAUCCCACCACAUGAUGAUGCCUGAAGAGCCUUGGUUUUUUG", "polymerase ribozyme fitness (log ratio)": -2.41}
{"variant": "GACCAAUCUGCCCUCAGAGCUCGAGAACAUCUUCGGAUGCAGAGGAGGCAGGCUUUGGUGGCGCGAUAGCGCCAACGUCCUCAACCUCCAAUGCAUCCCACCACAUGAUGAUGCCUGAAGGGCCUUGGUUUUUUG", "polymerase ribozyme fitness (log ratio)": 1.94}
{"variant": "GACCAAUCUGCCCUCAGAGCUCGAGAACAUCUUCGGAUGCAGAGGAGGCAGGCUUUGGUGGCGCGAUAGCGCCAACGUCCUCAACCUCCAAUGCAUCCCACCACAUGAUGAUGCCUGAAGCGCCUUGGUUUUUUG", "polymerase ribozyme fitness (log ratio)": 1.68}
{"variant": "GACCAAUCUGCCCUCAGAGCUCGAGAACAUCUUCGGAUGCAGAGGAGGCAGGCUUUGGUGGCGCGAUAGCGACAACGUCCUCAACCUUCAAUGCAUCCCACCACAUGAUGAUGCCUGAAGAGCCUUGGUUUUUUG", "polymerase ribozyme fitness (log ratio)": -1.31}
{"variant": "GACCAAUCUGCCCUCAGAGCUCGAGAACAUCUUCGGAUGCAGAGGAGGCAGGCUUUGGUGGCGCGAUAGCGCCAACGUCCUCAACCUCCUAAGCAUCCCACCACAUGAUGAUGCCUGAAGAGCCUUGGUUUUUUG", "polymerase ribozyme fitness (log ratio)": -1.45}
{"variant": "GACCAAUCUGCCCUCAGAGCUCGAGAACAUCUUCGGAUGCAGAGGAGGCAGGCUUUGGUGGCGCGAUAGCGCCAACGUCCUCAACCUCCAAUGCAUCCCACCACAUGAUGAUGCCUGAUGAGCCUUGGUUUUUUG", "polymerase ribozyme fitness (log ratio)": -0.819}
{"variant": "GACCAAUCUGCCCUCAGAGCUCGAGAACAUCUUCGGAUGCAGAGGAGGCAGGCUUUGGUGGCGCGAUUGUGCCAACGUCCUCAACCUCCAACGCAUCCCACCAUAUGAUGAUGCCUGAAGAGCUUUGGUUUUUUG", "polymerase ribozyme fitness (log ratio)": -7.15}
{"variant": "GACCAAUCUGCCCUCAGAGCUCGAGAACAUCUUCGGAUGCAGAGGAGGCAGGCUUGGGUGGCGCGAUAGCGCCAACGUCCUCAACCUCCAAUGCAUCCCACCACAUGAUGAUGCCUGAAGAGCCUUGGUCUUUUG", "polymerase ribozyme fitness (log ratio)": -1.02}
{"variant": "GACCAAUCUGCCCUCAGAGCUCGAGAACAUCUUCGGAUGCAGAGGAGGCAGGCUUUGGUGGCGCGAUAGCGCCAACGUCCUCAGCCUCCAAUGCCUCCCACCACAUGAUGAUGCCUGAAGAGCCUUUGUUUUUUG", "polymerase ribozyme fitness (log ratio)": -2.62}
{"variant": "GACCAAUCUGCCCUCAGAGCUCGAGAACAUCUUCGGAUGCAGAGGAGGCAGGCUUUGGUGGUGCGAUAGCGCCAACGUCCUCAACCUCCAAUGCAUCCCACCACAUGAUGAUGCCUGAAGAGACUUGGUUUUUUG", "polymerase ribozyme fitness (log ratio)": 0.0354}
{"variant": "GACCAAUCUGCCCUCAGAGCUCGAGAACAUCUUCGGAUGCAGAGGAGGCAGGCUUUGGUGGCGCGAUAGCGCCAACGUCCUCAACCUCCACUGCAUCCCACCACAUGAUGAUGCCUGAAGAGCCUUGGUUUUUUG", "polymerase ribozyme fitness (log ratio)": -1.17}
{"variant": "GACCAAUCUGCCCUCAGAGCUCGAGAACAUCUUCGGAUGCAGAGGAGGCAGGCUUGGGCGGCGCGAUAGCGCCAACGUCCUCAACCUCCAAUGCAUCCCACCACAUGAUGAUGCCUGAAGAGCCUUGGUUUUUUG", "polymerase ribozyme fitness (log ratio)": -1.57}
{"variant": "GACCAAUCUGCCCUCAGAGCUCGAGAACAUCUUCGGAUGCAGAGGAGGCAGGCUUGGGUGGCGCGAUAGCGCCAACGUCCUCAACCACCAAUGCAUCCCACCACAUGAUGAUGCCUGAAGAGCCUUGGUUUUUUG", "polymerase ribozyme fitness (log ratio)": -1.33}
{"variant": "GACCAAUCUGCCCUCAGAGCUCGAGAACAUCUUCGGAUGCAGAGGAGGCAGGCUUGGGUGGCGCGAUAGCGCCAACGUCCUCAACCGCCAAUGCAUCCCACCACAUGAUGAUGCCUGAAGAGCCUUGGUUUUUUG", "polymerase ribozyme fitness (log ratio)": -0.352}
{"variant": "GACCAAUCUGCCCUCAGAGCUCGAGAACAUCUUCGGAUGCAGAGGAGGCAGGCUUGGGUGGCGCGAUAGCGCCAACGUCCUCAACCUCCAAUGCAUCCCACCACAUGAUGAUGCCUGAAUAGCCUUGGUUUUUUG", "polymerase ribozyme fitness (log ratio)": -0.0956}
{"variant": "GACCAAUCUGCCCUCAGAGCUCGAGAACAUCUUCGGAUGCAGAGGAGGCAGGCUUGGGUGGCGCGAUAGCGCCAACGUCCUCAACCUCCAAUGCAUCCCACCACAUGAUGAUGCCUGAAAAGCCUUGGUUUUUUG", "polymerase ribozyme fitness (log ratio)": 0.238}
{"variant": "GACCAAUCUGCCCUCAGAGCUCGAGAACAUCUUCGGAUGCAGAGGAGGCAGGCUUUGGUGGCGCGAUAGGGCCAACGUCCUCAACCUCCAAUGCAUCCCACCACAUGAUGAUGCAUGAAGAACCUUGGUUUUUUG", "polymerase ribozyme fitness (log ratio)": -4.59}
{"variant": "GACCAAUCUGCCCUCAGAGCUCGAGAACAUCUUCGGAUGCAGAGGAGGCAGGCUUUGGUGGCGCGAUAGCGCCAACGUCCUCAACCUCCGAUGCAUUCCACCACAUGAUGAUGCCUGAAGAGCCUUGGUUUUUUG", "polymerase ribozyme fitness (log ratio)": -0.119}
{"variant": "GACCAAUCUGCCCUCAGAGCUCGAGAACAUCUUCGGAUGCAGAGGAGGCAGGCUUGGGUGGCGCGAUAGCGCCAACGACCACAACCUCCAAUGCAUCCCACCACAUGAUGAUCCCUGAAGAGCCUUGGUUUUUUG", "polymerase ribozyme fitness (log ratio)": -3.06}
